Assay results from publication doi:10.1101/2024.09.05.611543 (bioRxiv, 2024).

Target: the molecule itself
Assay: SEC-MALS

Row | Protein | stoichiometry N
1 | CaKip3 MD-PT (motor domain, neck linker, neck extension and proximal tail domain; residues 1-707) (domain or fragment, Candida albicans, UniProt A0A1D8PKA4 1-707, looked up) MSYPNSLGSPATVTSTSVPTAKQSSISVAVRVRPFTEAESNRLVKIDNDDVFLGDGCLTSDNNNNNNNSNSNGNGNGNGSSAANSSGASTSRRAIFNTLGGLRKIINVVDDRMLIFDPPETNPLTKMQRNAFPNSFKGSRIREHRFVFDRLFDEDCTQDQVYRNTTQPLLDSVLDGYNATVFAYGATGCGKTHTISGTPEDPGVIFLTMKELYNRIEELKDTKIIDISLSYLEIYNETIRDLLNPMTQCKNLVIREDANNKISVSNLSRHRPNSVEEVMQLILEGNKNRTCSPTEANATSSRSHAVLQINVIQKDRTGDITEEHTFATLSIIDLAGSERAAATKNRGARLNEGANINKSLLALGNCINALCDPRRRNHVPYRDSKLTRLLKFSLGGNCKTVMIVCVSPSSQHYDETLNTLKYADRAKEIKTKLIRNQHNLDRHVGSYLKMITEQKQEIEELRARESKMVESTINKRKDLESKVFKILFESLESTRKAIAKQNQEKWKKYFILAKRKLLLSQKIETELVLEQRDDIDINSLSIASGNESESVFKIYDLCEQLISKIEYQLPQLESQYSQPTDLDYILEDSAMQTLKRLQDEEGWTEHHSAIYRQSIQSMKREVHTDLLLYSSILYDNLIHDLSIFFYIPREIGNFINNISNPTSLNEANQELLYNMTLGLENLLNGEFDSAMEHYAMDYMKNKVESEN | 2
2 | CaKip3 PT (proximal tail only; residues 475-707), His6-MBP fusion (domain or fragment, Candida albicans, UniProt A0A1D8PKA4 475-707, looked up) KRKDLESKVFKILFESLESTRKAIAKQNQEKWKKYFILAKRKLLLSQKIETELVLEQRDDIDINSLSIASGNESESVFKIYDLCEQLISKIEYQLPQLESQYSQPTDLDYILEDSAMQTLKRLQDEEGWTEHHSAIYRQSIQSMKREVHTDLLLYSSILYDNLIHDLSIFFYIPREIGNFINNISNPTSLNEANQELLYNMTLGLENLLNGEFDSAMEHYAMDYMKNKVESEN | 2
3 | CaKip3 NE-PT (neck extension and proximal tail; residues 444-707), His6-MBP fusion (domain or fragment, Candida albicans, UniProt A0A1D8PKA4 444-707, looked up) VGSYLKMITEQKQEIEELRARESKMVESTINKRKDLESKVFKILFESLESTRKAIAKQNQEKWKKYFILAKRKLLLSQKIETELVLEQRDDIDINSLSIASGNESESVFKIYDLCEQLISKIEYQLPQLESQYSQPTDLDYILEDSAMQTLKRLQDEEGWTEHHSAIYRQSIQSMKREVHTDLLLYSSILYDNLIHDLSIFFYIPREIGNFINNISNPTSLNEANQELLYNMTLGLENLLNGEFDSAMEHYAMDYMKNKVESEN | 2
